In test [1] the target is T1, EIV-HA protein (hemagglutinin of equine influenza virus H3N8), wild type (equine influenza virus (H3N8)). The test is described as follows: SPR.
For test [2], the target named is T1, EIV-HA protein (hemagglutinin of equine …). Briefly: SPR. This is another data set of the same source.
For test [3] the target is unchanged. Briefly: ELISA.

B1: H81 recombinant antibody (equine Ig (Fab)2 recombined with homo Ig Fc) (antibody, V domains shown)
VH: QVQLKESGPGLVKPSQTLSLTCTVSGLSLSSDAVGWVRQAPGKGLEWVACIYGDESTYYNPALKSRAGITKDTSKSQVYLTLNSLTGEDTAVYYCAGLVYEYYAGTWTIVFELKYWGQGILVTVSS
VL: QSLTQPASVSGTLGQTVTISCSGSSSNIGHRYSTVGWYQQIPGTAPKTLIYGSDKRASGVPDRFSGSKSGNTATLTISGLQAEDEADYYCGSYYYASSDSSGGAFGGGTHLTIA
In the case of B1, in test [1], the affinity, expressed as Kd, was 10.1 nM. Besides, the koff in test [2] was 8.52e-05 s⁻¹. In addition, it took 4.2 ng/mL to reach a half-maximal effect in test [3] (EC50).
